Consider one molecule from article PMC6973313 (mAbs, 2020).

This test concerns the target T1, Mouse GIPR extracellular domain (residues 19 to 134) (mouse, UniProt Q0P543 19-134).
T1 sequence: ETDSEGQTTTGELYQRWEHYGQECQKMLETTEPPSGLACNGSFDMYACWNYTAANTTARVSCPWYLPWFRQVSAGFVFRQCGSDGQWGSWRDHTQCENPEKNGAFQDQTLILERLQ
Kind of test: crystal structure.

B1: Fab of mAb1 (Fab1) (Fab, V domains shown)
VH: DVQLVESGGGLVQPGGSRKLSCAASGFTFSSFGMHWVRQAPEKGLEWVAYISSGSSTIYYADTVKGRFTISRDNPKNTLFLQMTSLRSEDTAMYYCARGKYPTWIAYWGQGTLVTVSA
VL: DIVMTQSPSSLTVTAGEKVTMSCKSSQSLLNSGNQKNYLTWYQQKPGQPPKLLISWASTRDSGVPDRFTGSGSGTDFTLTISSVQAEDLAVYYCQNDYSYPLTFGAGTKLELKR
For the molecule B1, the binding result is recorded as “binds”.
